System: MS2 coat protein
Experiment: apparent KD of MS2 coat protein; designed switch direction (-1 OFF switch, 1 ON switch): -1; higher = weaker reporter binding
Outline: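 SNAP-549-labelled MS2 coat protein was titrated, doubling from 0.7 or 1.5 nM to 3 µM, over designed RNA switches transcribed on Illumina chips by stalled E. coli RNA polymerase. Runs were done without input, with 200 uM small-molecule ligand, or with an oligonucleotide input. Apparent KD is the per-design median over clusters of curve-fitted normalised fluorescence.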

[1] = Eterna round: R95, input ligand: FMN 200 uM
[2] = Eterna round: R95, input ligand: microRNA oligo, concentration not stated
[3] = Eterna round: R95, input ligand: none
[4] = input ligand: microRNA oligo, concentration not stated

Row | Sequence | apparent KD of MS2 coat protein [1] [nM] | apparent KD of MS2 coat protein [2] [nM] | apparent KD of MS2 coat protein [3] [nM] | apparent KD of MS2 coat protein (input ligand: FMN 200 uM) [nM] | apparent KD of MS2 coat protein [4] [nM] | apparent KD of MS2 coat protein (input ligand: none) [nM]
1 | AGAAGUAGUAACCGAUCCUACAUGAGGAUCACCCAUGUAGCGGGACGUGCACGCGAAGCUCGUCAGACUACCAGAUG [salish99_TOv1_r3_024] (puzzle: Sensor v3, turn-off variant 1) | 27.2 | 26.7 | 28.6 | – | – | –
2 | AGAGAAUACUCAGGAUAUCUGAAUAGAUAGAGAAGAGAAGGGAGACAUGAGGAUCACCCAUGUGAAGUCUUGAGGCUGCAUGGA [Prohibition 24 - Jieux - Exclusion NG 1] (Eterna round: R96, puzzle: Exclusion NG 1) | – | – | – | 165 | 85.6 | 209
3 | AGAGAAUACUCAGGAUAUGUGAAUAGAUAGAGAACAGAAGGGAGACAUGAGGAUCACCCAUGUGAAGUCUUGAGGCUGCAUGGA [Prohibition 23 - Jieux - Exclusion NG 1] (Eterna round: R96, puzzle: Exclusion NG 1) | – | – | – | 403 | 408 | 337
4 | AGAGAGUCAGGAUAUGACGAAGAGAACAUGAGGAUCACCCAUGUAGCUUCGUAAUCAUCGUCAGAAGGGACGAACU [JR_Ex5_Sub090] (Eterna round: R97, puzzle: Exclusion 5) | – | – | – | 14.7 | – | 14.8
5 | AGAGUGCUGCGAGGAUAUACAUGAGGAUCACCCAUGUAAAUGUGUGAGGCUUUGCCUCACACAAUGUAGAAGGCGCAGUACUCA [Mat - Exclusion NG 2 - Mod of JL - D2] (Eterna round: R96, puzzle: Exclusion NG 2) | – | – | – | 19 | 10.7 | 14.4
6 | AGAGUGCUGCGAGGAUAUACAUGAGGAUCACCCAUGUGGUCCUGUGAGGCAAAGCCUCACAGGAUGUAGAAGGCGCAGUACUCA [Mat - Exclusion NG 2 - Mod of JL - D46] (Eterna round: R96, puzzle: Exclusion NG 2) | – | – | – | 57 | 14.2 | 19.9
7 | AGAGUGGUGCGAGGAUAUACAUGAGGAUCACCCAUGUAAACGUGUGAGGCAAAGCCUCACACGAUGUAGAAGGCGCACUACUCA [Mat - Exclusion NG 2 - Mod of JL - D15] (Eterna round: R96, puzzle: Exclusion NG 2) | – | – | – | 17.3 | 9.9 | 15.8
8 | AGAUAACAUGAGGAUCACCCAUGUGAGGAUAUUUACCCAAGAGCUUCGGCUCUCAGGUGAAGAAGGCACAUUGA [EX1 #58] (Eterna round: R97, puzzle: Exclusion 1) | – | – | – | 316 | – | 86.4
9 | AGAUCGUCAGGAUAUACAUGAGGAUCACCCAUGUGUAGUCCAAAUUUGACUACAACAUGUAGAAGGGACGAUCG [Exclusion 3 (MOD2 of #1 Marzena11)] (Eterna round: R97, puzzle: Exclusion 3) | – | – | – | 209 | – | 44
10 | AGAUCUAGGACAGGAUAUACUGAUGGCUUCAUCGAAGAUGAAGCCAUCACAUGAGGAUCACCCAUGUAGAAGGGUCCUAGAUCA [Omei Exc(NG) 2Av8] (Eterna round: R96, puzzle: Exclusion NG 2) | – | – | – | – | 9.55 | –
11 | AGAUCUAGGACAGGAUAUAUAGAUGGCUUCAUCGAAGAUGAAGCCAUCACAUGAGGAUCACCCAUGUAGAAGGGUCCUAGAUCA [Omei Exc(NG) 2Av6] (Eterna round: R96, puzzle: Exclusion NG 2) | – | – | – | 10.9 | 8.74 | 10.3
12 | AGAUGGCGAGGAUAUACAUGAGGAUCACCCAUGUGAGAAGAUAAAGUGAGGAAGAAAAGUAGAAGGCGCUGUCA [Mat - Exclusion 3 - Mod of Salish D23] (puzzle: Exclusion 3) | 68.3 | 44.9 | 45.1 | – | – | –
13 | AGAUGGCGAGGAUAUACAUGAGGAUCACCCAUGUGAGAUAAAUAAGUGAGGAAGAAAAGUAGAAGGCGCUGUCA [Mat - Exclusion 3 - Mod of Salish D14] (puzzle: Exclusion 3) | – | 74.3 | – | – | – | –
14 | AGAUGUAGAUACCGAUCCUACAUGAGGAUCACCCAUGUAGCUAGACGUGCUCGCGUAGCUCGUCAGACUACCAGUAG [salish99_TOv1_r3_087] (puzzle: Sensor v3, turn-off variant 1) | 242 | 156 | 267 | – | – | –
15 | AGAUGUUAAGAGGAUAUCAGCCAAAACCGGCAGUGAGAAGGCUUGACAUGAGGAUCACCCAUGUUUUGCGGUAA [Islalaus] (Eterna round: R97, puzzle: Exclusion 6) | – | – | – | 397 | – | 38.6
